In IntAct's records for PubMed 25910212:

B1: E3 ubiquitin-protein ligase Midline-1 (Homo sapiens), O15344 (parent)
chain: METLESELTCPICLELFEDPLLLPCAHSLCFNCAHRILVSHCATNESVESITAFQCPTCRHVITLSQRGLDGLKRNVTLQNIIDRFQKASVSGPNSPSETRRERAFDANTMTSAEKVLCQFCDQDPAQDAVKTCVTCEVSYCDECLKATHPNKKPFTGHRLIEPIPDSHIRGLMCLEHEDEKVNMYCVTDDQLICALCKLVGRHRDHQVAALSERYDKLKQNLESNLTNLIKRNTELETLLAKLIQTCQHVEVNASRQEAKLTEECDLLIEIIQQRRQIIGTKIKEGKVMRLRKLAQQIANCKQCIERSASLISQAEHSLKENDHARFLQTAKNITERVSMATASSQVLIPEINLNDTFDTFALDFSREKKLLECLDYLTAPNPPTIREELCTASYDTITVHWTSDDEFSVVSYELQYTIFTGQANVVSLCNSADSWMIVPNIKQNHYTVHGLQSGTKYIFMVKAINQAGSRSSEPGKLKTNSQPFKLDPKSAHRKLKVSHDNLTVERDESSSKKSHTPERFTSQGSYGVAGNVFIDSGRHYWEVVISGSTWYAIGLAYKSAPKHEWIGKNSASWALCRCNNNWVVRHNSKEIPIEPAPHLRRVGILLDYDNGSIAFYDALNSIHLYTFDVAFAQPVCPTFTVWNKCLTIITGLPIPDHLDCTEQLP
B2: U4/U6 small nuclear ribonucleoprotein Prp31 (Homo sapiens), Q8WWY3 (parent)
chain: MSLADELLADLEEAAEEEEGGSYGEEEEEPAIEDVQEETQLDLSGDSVKTIAKLWDSKMFAEIMMKIEEYISKQAKASEVMGPVEAAPEYRVIVDANNLTVEIENELNIIHKFIRDKYSKRFPELESLVPNALDYIRTVKELGNSLDKCKNNENLQQILTNATIMVVSVTASTTQGQQLSEEELERLEEACDMALELNASKHRIYEYVESRMSFIAPNLSIIIGASTAAKIMGVAGGLTNLSKMPACNIMLLGAQRKTLSGFSSTSVLPHTGYIYHSDIVQSLPPDLRRKAARLVAAKCTLAARVDSFHESTEGKVGYELKDEIERKFDKWQEPPPVKQVKPLPAPLDGQRKKRGGRRYRKMKERLGLTEIRKQANRMSFGEIEEDAYQEDLGFSLGHLGKSGSGRVRQTQVNEATKARISKTLQRTLQKQSVVYGGKSTIRDRSSGTASSVAFTPLQGLEIVNPQAAEKKVAEANQKYFSSMAEFLKVKGEKSGLMST
partner: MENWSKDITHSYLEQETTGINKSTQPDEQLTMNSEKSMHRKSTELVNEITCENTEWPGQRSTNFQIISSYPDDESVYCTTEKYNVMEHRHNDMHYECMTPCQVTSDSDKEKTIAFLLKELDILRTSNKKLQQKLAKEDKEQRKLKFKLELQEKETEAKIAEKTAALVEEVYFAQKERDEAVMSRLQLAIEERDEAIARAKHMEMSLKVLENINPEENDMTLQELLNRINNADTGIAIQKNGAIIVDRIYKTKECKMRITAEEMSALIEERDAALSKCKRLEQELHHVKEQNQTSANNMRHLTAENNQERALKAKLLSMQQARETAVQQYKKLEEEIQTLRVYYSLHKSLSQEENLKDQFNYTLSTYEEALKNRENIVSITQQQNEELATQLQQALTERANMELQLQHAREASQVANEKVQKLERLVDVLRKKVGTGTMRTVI
B3: Neurogenin-3 (Homo sapiens), Q9Y4Z2 (parent)
chain: MTPQPSGAPTVQVTRETERSFPRASEDEVTCPTSAPPSPTRTRGNCAEAEEGGCRGAPRKLRARRGGRSRPKSELALSKQRRSRRKKANDRERNRMHNLNSALDALRGVLPTFPDDAKLTKIETLRFAHNYIWALTQTLRIADHSLYALEPPAPHCGELGSPGGSPGDWGSLYSPVSQAGSLSPAASLEERPGLLGATFSACLSPGSLAFSDFL
B4: ATP synthase mitochondrial F1 complex assembly factor 2 (Homo sapiens), Q8N5M1 (parent)
chain: MWRSCLRLRDGGRRLLNRPAGGPSASMSPGPTIPSPARAYAPPTERKRFYQNVSITQGEGGFEINLDHRKLKTPQAKLFTVPSEALAIAVATEWDSQQDTIKYYTMHLTTLCNTSLDNPTQRNKDQLIRAAVKFLDTDTICYRVEEPETLVELQRNEWDPIIEWAEKRYGVEISSSTSIMGPSIPAKTREVLVSHLASYNTWALQGIEFVAAQLKSMVLTLGLIDLRLTVEQAVLLSRLEEEYQIQKWGNIEWAHDYELQELRARTAAGTLFIHLCSESTTVKHKLLKE
partner: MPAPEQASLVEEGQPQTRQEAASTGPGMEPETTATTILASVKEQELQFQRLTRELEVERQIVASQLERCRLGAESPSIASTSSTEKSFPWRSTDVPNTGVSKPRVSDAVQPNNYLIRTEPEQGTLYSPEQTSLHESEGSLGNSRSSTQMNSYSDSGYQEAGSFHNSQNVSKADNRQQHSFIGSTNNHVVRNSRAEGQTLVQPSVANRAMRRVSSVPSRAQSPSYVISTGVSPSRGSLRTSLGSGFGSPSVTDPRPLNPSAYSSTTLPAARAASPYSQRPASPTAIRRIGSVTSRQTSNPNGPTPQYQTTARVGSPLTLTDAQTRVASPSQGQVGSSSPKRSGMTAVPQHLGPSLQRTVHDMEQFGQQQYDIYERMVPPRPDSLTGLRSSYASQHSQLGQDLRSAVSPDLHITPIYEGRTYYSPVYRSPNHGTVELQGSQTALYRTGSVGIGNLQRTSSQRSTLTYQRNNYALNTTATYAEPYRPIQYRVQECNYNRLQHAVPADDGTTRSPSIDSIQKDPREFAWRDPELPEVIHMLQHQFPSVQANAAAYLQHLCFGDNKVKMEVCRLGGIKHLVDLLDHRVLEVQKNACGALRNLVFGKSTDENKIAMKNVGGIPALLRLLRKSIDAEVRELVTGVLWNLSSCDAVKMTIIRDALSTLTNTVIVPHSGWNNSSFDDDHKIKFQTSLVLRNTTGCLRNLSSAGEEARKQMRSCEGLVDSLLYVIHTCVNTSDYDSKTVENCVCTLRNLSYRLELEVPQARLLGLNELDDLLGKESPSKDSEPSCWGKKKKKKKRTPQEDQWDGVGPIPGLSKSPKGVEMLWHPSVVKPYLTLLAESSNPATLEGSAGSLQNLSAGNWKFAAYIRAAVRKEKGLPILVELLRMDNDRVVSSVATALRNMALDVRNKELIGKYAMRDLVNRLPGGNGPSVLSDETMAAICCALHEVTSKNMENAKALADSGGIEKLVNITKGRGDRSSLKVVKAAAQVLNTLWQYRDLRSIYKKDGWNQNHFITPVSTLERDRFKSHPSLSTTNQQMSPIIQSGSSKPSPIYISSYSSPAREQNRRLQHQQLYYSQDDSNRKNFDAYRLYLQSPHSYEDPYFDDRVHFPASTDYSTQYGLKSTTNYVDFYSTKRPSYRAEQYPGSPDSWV
B5: Meiotic recombination protein DMC1/LIM15 homolog (Homo sapiens), Q14565 (parent)
chain: MKEDQVVAEEPGFQDEEESLFQDIDLLQKHGINVADIKKLKSVGICTIKGIQMTTRRALCNVKGLSEAKVDKIKEAANKLIEPGFLTAFEYSEKRKMVFHITTGSQEFDKLLGGGIESMAITEAFGEFRTGKTQLSHTLCVTAQLPGAGGYPGGKIIFIDTENTFRPDRLRDIADRFNVDHDAVLDNVLYARAYTSEHQMELLDYVAAKFHEEAGIFKLLIIDSIMALFRVDFSGRGELAERQQKLAQMLSRLQKISEEYNVAVFVTNQMTADPGATMTFQADPKKPIGGHILAHASTTRISLRKGRGELRIAKIYDSPEMPENEATFAITAGGIGDAKE
B6: Carbonic anhydrase-related protein (Homo sapiens), P35219 (parent)
chain: MADLSFIEDTVAFPEKEEDEEEEEEGVEWGYEEGVEWGLVFPDANGEYQSPINLNSREARYDPSLLDVRLSPNYVVCRDCEVTNDGHTIQVILKSKSVLSGGPLPQGHEFELYEVRFHWGRENQRGSEHTVNFKAFPMELHLIHWNSTLFGSIDEAVGKPHGIAIIALFVQIGKEHVGLKAVTEILQDIQYKGKSKTIPCFNPNTLLPDPLLRDYWVYEGSLTIPPCSEGVTWILFRYPLTISQLQIEEFRRLRTHVKGAELVEGCDGILGDNFRPTQPLSDRVIRAAFQ
partner: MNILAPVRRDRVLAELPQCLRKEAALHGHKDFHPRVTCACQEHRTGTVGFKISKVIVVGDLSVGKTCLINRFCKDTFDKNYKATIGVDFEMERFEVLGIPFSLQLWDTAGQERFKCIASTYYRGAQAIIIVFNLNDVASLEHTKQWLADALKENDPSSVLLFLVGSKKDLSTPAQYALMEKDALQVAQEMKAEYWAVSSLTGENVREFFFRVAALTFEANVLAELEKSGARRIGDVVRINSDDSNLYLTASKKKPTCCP
B7: U4/U6 small nuclear ribonucleoprotein Prp31 (Homo sapiens), Q8WWY3 (parent)
chain: B2 chain
partner: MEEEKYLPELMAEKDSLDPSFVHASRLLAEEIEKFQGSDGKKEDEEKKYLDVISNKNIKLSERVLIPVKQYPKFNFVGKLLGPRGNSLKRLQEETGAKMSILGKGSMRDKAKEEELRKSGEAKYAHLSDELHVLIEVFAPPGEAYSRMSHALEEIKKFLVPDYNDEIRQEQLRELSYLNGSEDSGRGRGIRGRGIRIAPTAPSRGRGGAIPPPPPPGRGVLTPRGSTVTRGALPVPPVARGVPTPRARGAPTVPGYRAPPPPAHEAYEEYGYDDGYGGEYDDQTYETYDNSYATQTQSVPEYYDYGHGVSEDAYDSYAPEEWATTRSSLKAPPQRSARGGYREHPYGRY
B8: U4/U6 small nuclear ribonucleoprotein Prp31 (Homo sapiens), Q8WWY3 (parent)
chain: B2 chain
partner: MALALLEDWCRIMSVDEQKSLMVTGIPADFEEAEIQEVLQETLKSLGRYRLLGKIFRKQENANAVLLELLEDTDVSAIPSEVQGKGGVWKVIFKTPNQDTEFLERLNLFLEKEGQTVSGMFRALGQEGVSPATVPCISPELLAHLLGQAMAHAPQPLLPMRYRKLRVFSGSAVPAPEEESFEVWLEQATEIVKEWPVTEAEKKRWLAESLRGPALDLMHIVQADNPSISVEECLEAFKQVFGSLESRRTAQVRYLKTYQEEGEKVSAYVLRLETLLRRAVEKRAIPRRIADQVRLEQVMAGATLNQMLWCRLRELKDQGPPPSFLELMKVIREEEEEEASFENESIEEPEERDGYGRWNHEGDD

Variants of: B1
Settings: with meox1_human MEOX1, P50221
Chain of meox1_human MEOX1, P50221 (P50221 whole entry): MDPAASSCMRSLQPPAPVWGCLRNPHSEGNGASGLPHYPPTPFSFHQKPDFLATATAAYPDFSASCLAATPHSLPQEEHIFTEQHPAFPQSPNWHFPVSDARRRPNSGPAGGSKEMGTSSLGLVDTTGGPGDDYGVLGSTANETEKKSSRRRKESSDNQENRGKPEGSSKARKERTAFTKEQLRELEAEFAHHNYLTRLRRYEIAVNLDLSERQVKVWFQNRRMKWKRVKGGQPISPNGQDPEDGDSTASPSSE

Variant | effect of a mutation on the interaction
P151L | with no effect
C266R | with no effect
L626P | with no effect
K370E | with no effect

Variants of: B2
Settings: with mipo1_human MIPOL1, Q8TD10

Variant | effect of a mutation on the interaction
L107V | with no effect

Variants of: B3
Settings: with TCF12, Q99081-3
Chain of TCF12, Q99081-3 (Q99081 other isoform, or with tags, fused parts or gaps): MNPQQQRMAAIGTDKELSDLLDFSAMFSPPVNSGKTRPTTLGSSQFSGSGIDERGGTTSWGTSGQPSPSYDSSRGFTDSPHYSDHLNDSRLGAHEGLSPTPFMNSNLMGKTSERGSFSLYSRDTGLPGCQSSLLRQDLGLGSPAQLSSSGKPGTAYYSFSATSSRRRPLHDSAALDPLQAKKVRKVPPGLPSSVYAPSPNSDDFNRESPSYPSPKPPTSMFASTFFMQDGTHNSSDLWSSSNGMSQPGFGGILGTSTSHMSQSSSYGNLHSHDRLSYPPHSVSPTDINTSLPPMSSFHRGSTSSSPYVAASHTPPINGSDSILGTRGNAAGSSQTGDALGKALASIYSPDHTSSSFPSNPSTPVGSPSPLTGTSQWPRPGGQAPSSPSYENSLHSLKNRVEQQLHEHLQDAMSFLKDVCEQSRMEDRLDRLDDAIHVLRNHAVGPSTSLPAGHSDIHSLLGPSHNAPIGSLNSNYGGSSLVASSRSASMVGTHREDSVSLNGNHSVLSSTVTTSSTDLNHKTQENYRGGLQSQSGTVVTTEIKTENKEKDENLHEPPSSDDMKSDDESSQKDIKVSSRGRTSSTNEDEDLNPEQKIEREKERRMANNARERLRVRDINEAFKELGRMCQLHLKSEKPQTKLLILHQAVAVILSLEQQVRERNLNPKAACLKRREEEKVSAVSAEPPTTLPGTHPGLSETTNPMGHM

Variant | effect of a mutation on the interaction
F199S | disrupting interaction strength
G167R | disrupting interaction strength

Variants of: B4
Settings: with PKP4, Q99569-2

Variant | effect of a mutation on the interaction
W94R | disrupting interaction strength

Variants of: B5
Settings: with psa3_human PSMA3, P25788
Chain of psa3_human PSMA3, P25788 (P25788 whole entry): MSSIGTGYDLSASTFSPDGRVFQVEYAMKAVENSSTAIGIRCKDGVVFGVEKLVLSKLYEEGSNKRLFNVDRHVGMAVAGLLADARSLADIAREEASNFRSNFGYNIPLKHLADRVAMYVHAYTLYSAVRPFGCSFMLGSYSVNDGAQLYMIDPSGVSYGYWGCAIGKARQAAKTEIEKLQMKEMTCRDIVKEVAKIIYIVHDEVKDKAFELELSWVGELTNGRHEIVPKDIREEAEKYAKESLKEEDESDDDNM

Variant | effect of a mutation on the interaction
M200V | disrupting interaction strength

Variants of: B5
Settings: with sdcb1_human SDCBP

Variant | effect of a mutation on the interaction
M200V | disrupting interaction strength

Variants of: B6
Settings: with rab34_human RAB34, Q9BZG1

Variant | effect of a mutation on the interaction
S100P | disrupting interaction strength

Variants of: B7
Settings: with khdr2_human KHDRBS2, Q5VWX1

Variant | effect of a mutation on the interaction
L107V | with no effect

Variants of: B8
Settings: with pnma2_human PNMA2, Q9UL42

Variant | effect of a mutation on the interaction
L107V | with no effect
